From US20200289575A1 (NSAGE, published 2020)

Biological target: AGE-albumin (advanced glycation end-product albumin), Sigma-Aldrich
Assay: cell-based or functional assay

B1: sRAGE (soluble Receptor for Advanced Glycation End-products), cat. RD172116100, Biovendor (receptor)
chain: MRGSHHHHHHGMASAQNITARIGEPLVLKCKGAPKKPPQRLEWKLNTGRTEAWKVLSPQGGGPWDSVARVLPNGSLFLPAVGIQDEGIFRCQAMNRNGKETKSNYRVRVYQIPGKPEIVDSASELTAGVPNKVGTCVSEGSYPAGTLSWHLDGKPLVPNEKGVSVKEQTRRHPETGLFTLQSELMVTPARGGDPRPTFSCSFSPGLPRHRALRTAPIQPRVWEPVPLEEVQLVVEPEGGAVAPGGTVTLTCEVPAQPSPQIHWMKDGVPLPLPPSPVLILPEIGPQDQGTYSCVATHSSHGPQESRAVSISIIEPGEEGPTAGEGFDKVREAEDSPQHM
- cell viability of HT22 cells by MTT assay (percent relative to control): 101%
